Results as given in patent publication US7037670B2, “Peptide substrates for assay of extracellular signal-regulated protein kinase 1 and 2 activity” (Board of Supervisors of Louisiana State University and …, priority 2002, dated 2006).
Like-named read-outs stand apart in the source and are kept apart here. Ends that are not written are not given here.

Assays:
ERK1 = ERK1 (Rattus norvegicus, UniProt P21708); assay: Phosphorylation of substrates by purified, activated ERK1 (32P incorporation, P81 paper); assay type: biochemical; conditions: peptides 1 mM, MBP 20 μM, 10 min at 30° C., median of three determinations
ERK1, sequence (P21708 2-380 limits assumed): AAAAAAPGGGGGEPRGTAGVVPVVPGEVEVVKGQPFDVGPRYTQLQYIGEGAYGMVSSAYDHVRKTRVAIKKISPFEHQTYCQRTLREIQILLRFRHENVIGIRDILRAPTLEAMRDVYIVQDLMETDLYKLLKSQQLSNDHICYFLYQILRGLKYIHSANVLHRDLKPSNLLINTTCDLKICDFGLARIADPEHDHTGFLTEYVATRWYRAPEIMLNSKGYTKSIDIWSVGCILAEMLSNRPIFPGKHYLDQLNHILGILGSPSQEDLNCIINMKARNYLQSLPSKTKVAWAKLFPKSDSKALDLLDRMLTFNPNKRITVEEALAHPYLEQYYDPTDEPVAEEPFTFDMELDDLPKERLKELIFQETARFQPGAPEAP
From the text: Materials: Purified peptides were obtained from Sigma (St. Louis, Mo.) or custom synthesized by Louisiana State University Health Science Center Core Laboratories (New Orleans La.). Purified, activated ERK1 was a gift from Dr. M. H. Cobb (University of Texas Southwestern Medical Center, Dallas, Tex.). Purified, recombinant, activated ERK2 was a gift from Dr. N. G. Ahn (University of Colorado, Boulder, Colo.). Except as indicated below, other materials were purchased from Sigma. The new synthetic peptides modeled after Ser31 in human tyrosine hydroxylase are indicated.
(§1) ERK activity assays: Aliquots of supernatants or ERK1/2 immunoprecipitates (suspended in lysis solution) were mixed with substrate (1 mM final, unless stated otherwise) at 4° C. Phosphorylation reactions were initiated by addition of an equal volume of assay buffer containing [γ-^32P]ATP (NEN Life Sciences Products, now PerkinElmer Life Sciences, Boston, Mass.) and Mg^++ and allowed to proceed for 10 min at 30° C., after which duplicate 20 μl aliquots were spotted onto Whatman P81 paper. As would be predicted by the presence of multiple basic residues in the peptides, the ability of P81 paper to bind >90% of each of the peptides used in Tables 2 and 3 was confirmed by UV detection following RP-HPLC. The final reaction mixtures (50 μl) contained 50 mM β-glycerophosphate, 10 mM MgCl2, 1 mM EGTA, 1 mM dithiothreitol, 1 mM benzamidine, 0.1 mM ATP, 0.1 mM Na3VO4, 10 μM calmidazolium, 2 μM peptide inhibitor of cyclic AMP-dependent protein kinase ([…], SEQ ID NO: 24), 10 μg/ml leupeptin, and 0.025% Tween 20.
To test the effectiveness of various peptide substrates, peptide substrates were compared with myelin basic protein (“MBP,” SEQ ED NO: 1) for relative ability to be phosphorylated by purified ERK1 or ERK2. The ERK activity assay was as described above in Example 1. In Table 2, each value represents the median of three independent determinations, performed in duplicate. While all peptides were assayed at a concentration of 1 mM, MBP phosphorylation—given as a frame of reference at a concentration typically used in such assays—was assayed at 20 μM. ^32P incorporation into MBPtide (SEQ ID NO: 2) was 330 nmol/min/mg under the assay conditions used.

ERK2 [1] = target: T1, ERK2 (Rattus norvegicus, UniProt P63086); assay: Steady-state kinetic analyses of peptide substrates for ERK2; assay type: biochemical; conditions: for Kmin(app) / Vmax(app) Relative: median of three determinations; for Vmax(app) Relative: relative values
T1 sequence (P63086 2-358 limits assumed): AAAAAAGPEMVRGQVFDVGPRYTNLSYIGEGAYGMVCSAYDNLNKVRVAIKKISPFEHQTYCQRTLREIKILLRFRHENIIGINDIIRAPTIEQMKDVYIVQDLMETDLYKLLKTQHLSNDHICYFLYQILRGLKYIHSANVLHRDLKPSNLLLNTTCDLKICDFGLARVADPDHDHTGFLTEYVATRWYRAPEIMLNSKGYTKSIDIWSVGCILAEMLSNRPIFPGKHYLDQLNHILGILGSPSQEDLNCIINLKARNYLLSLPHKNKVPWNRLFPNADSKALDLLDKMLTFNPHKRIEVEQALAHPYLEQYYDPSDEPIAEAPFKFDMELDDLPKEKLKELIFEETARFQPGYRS
Description: as §1
In Table 5, each value represents the median of three independent determinations, performed in duplicate. […] See I. Kameshita et al., 1997. […] 355, pp. 5641-5646 (1996); see also C. N. Prowse et al., “Catalytic reaction pathway for the mitogen-activated protein kinase ERK2,” Biochem., vol. 39, pp. 6258-6266 (2000).

ERK2 [2] = target: T1, ERK2; assay: Phosphorylation of TH Ser31-containing peptides by purified, recombinant, activated ERK2; assay type: biochemical; conditions: for RELATIVE 32P INCORPORATION (% 3.3 μmol/min/mg): substrate 1 mM, median of three determinations; for RELATIVE 32P INCORPORATION (% 3.0 μmol/min/mg) Mean: mean of four determinations
From the text: Materials: Purified peptides were obtained from Sigma (St. Louis, Mo.) or custom synthesized by Louisiana State University Health Science Center Core Laboratories (New Orleans La.). Purified, activated ERK1 was a gift from Dr. M. H. Cobb (University of Texas Southwestern Medical Center, Dallas, Tex.). Purified, recombinant, activated ERK2 was a gift from Dr. N. G. Ahn (University of Colorado, Boulder, Colo.). Except as indicated below, other materials were purchased from Sigma. The new synthetic peptides modeled after […] in human tyrosine hydroxylase are indicated. ERK activity assays: Aliquots of supernatants or ERK1/2 immunoprecipitates (suspended in lysis solution) were mixed with substrate (1 mM final, unless stated otherwise) at 4° C. Phosphorylation reactions were initiated by addition of an equal volume of assay buffer containing [γ-^32P]ATP (NEN Life Sciences Products, now PerkinElmer Life Sciences, Boston, Mass.) and Mg^++ and allowed to proceed for 10 min at 30° C., after which duplicate 20 μl aliquots were spotted onto Whatman P81 paper. As would be predicted by the presence of multiple basic residues in the peptides, the ability of P81 paper to bind >90% of each of the peptides used in Tables 2 and 3 was confirmed by UV detection following RP-HPLC. The final reaction mixtures (50 μl) contained 50 mM β-glycerophosphate, 10 mM MgCl2, 1 mM EGTA, 1 mM dithiothreitol, 1 mM benzamidine, 0.1 mM ATP, 0.1 mM Na3VO4, 10 μM calmidazolium, 2 μM peptide inhibitor of cyclic AMP-dependent protein kinase ([…] ID NO: 24), 10 μg/ml leupeptin, and 0.025% Tween 20. Table 3 indicates the relative phosphorylation of TH-[…]-containing peptides by purified ERK2. […] These new substrates were assayed for the relative phosphorylation by purified ERK2 similar to the experiments that generated Table 3.

ERK1/2 = assay: In vitro kinase assay on PC12 cellular extracts with no further purification (with and without nerve growth factor); assay type: biochemical, rat; conditions: for pattern and degree of ERK activation over time compared with ERK immunoprecipitation and blot immunolabeling assays: PC12 cells with and without NGF, up to 480 min, extracts without purification
Description: Cells were treated with or without added 100 ng/ml 7S nerve growth factor for up to 8 h. One group of cells was harvested for blot immunolabeling and solubilized with sodium dodecyl sulfate solution, as described in J. W. Haycock, “Multiple forms of tyrosine hydroxylase in human neuroblastoma cells: Quantitation with isoform-specific antibodies,” J. Neurochem., vol. […] A second group of cells was harvested for kinase assays and subjected to trituration in an ice-cold lysis solution of 50 mM β-glycerophosphate, 1 mM EGTA, 1 mM dithiothreitol, 1 mM benzamidine (Eastman Kodak Co., Rochester, N.Y.), 0.1 mM Na3VO4, 10 μg/ml leupeptin, and 0.05% Tween 20. Supernatants from the latter samples were generated by sonication and centrifugation (20 min at 10,000×g) in a refrigerated centrifuge (Savant, Farmingdale, N.J.). In some experiments, ERK1/2 was isolated prior to assaying kinase activity by immunoprecipitation of the PC12 cellular extracts with anti-pan ERK1/2 and protein A-Sepharose. […] ERK activity assays: Aliquots of supernatants or ERK1/2 immunoprecipitates (suspended in lysis solution) were mixed with substrate (1 mM final, unless stated otherwise) at 4° C. Phosphorylation reactions were initiated by addition of an equal volume of assay buffer containing [γ-^32P]ATP (NEN Life Sciences Products, now PerkinElmer Life Sciences, Boston, Mass.) and Mg^++ and allowed to proceed for 10 min at 30° C., after which duplicate 20 μl aliquots were spotted onto Whatman P81 paper. […] Experiments were conducted to test the ability of different substrates to assay for activation of ERK1/2 in situ. […] Cells were harvested and-assayed for ERK1/2 activity by various methods.

ERK2 [3] = target: T1, ERK2; conditions: described previously by Robinson et al., 1996; cited from earlier work
ERK2 [4] = target: T1, ERK2; conditions: stated for MBP protein as contrast to the peptides; cited from earlier work

PTPSAPSPQPK (This sequence is TH (rat) Ser8.) [SEQ ID NO: 4]
RELATIVE 32P INCORPORATION (% OF MBP) (ERK1): <1 % OF MBP

EAIMSPRFK (This sequence is based on TH-31 type 1 HUMAN.) [SEQ ID NO: 10]
Kmin(app) (ERK2 [1]): 1.4 mM
Vmax(app) Relative (ERK2 [1]): 42
RELATIVE 32P INCORPORATION (% 3.3 μmol/min/mg) (ERK2 [2]): 21 % 3.3 μmol/min/mg

QAEAIMSPRFGRR-NH2 [SEQ ID NO: 15]
RELATIVE 32P INCORPORATION (% 3.0 μmol/min/mg) Mean (ERK2 [2]): 107 % 3.0 μmol/min/mg

YQATGPLSPGFRR-NH2 [SEQ ID NO: 18]
RELATIVE 32P INCORPORATION (% 3.0 μmol/min/mg) Mean (ERK2 [2]): 215 % 3.0 μmol/min/mg

YQAEAIMSPRFIGRR-NH2 [SEQ ID NO: 14]
RELATIVE 32P INCORPORATION (% 3.0 μmol/min/mg) Mean (ERK2 [2]): 117 % 3.0 μmol/min/mg
RELATIVE 32P INCORPORATION (% 3.3 μmol/min/mg) (ERK2 [2]): 100 % 3.3 μmol/min/mg

EAIMSPRFIGRR (This sequence is based on TH-31 type 1 HUMAN.) [SEQ ID NO: 12]
RELATIVE 32P INCORPORATION (% 3.3 μmol/min/mg) (ERK2 [2]): 41 % 3.3 μmol/min/mg

AIMSPRFIGRR (This sequence is based on TH-31 type 1 HUMAN.) [SEQ ID NO: 11]
RELATIVE 32P INCORPORATION (% 3.3 μmol/min/mg) (ERK2 [2]): 29 % 3.3 μmol/min/mg

QATGPLSPGPFRR-NH2 [SEQ ID NO: 17]
RELATIVE 32P INCORPORATION (% 3.0 μmol/min/mg) Mean (ERK2 [2]): 143 % 3.0 μmol/min/mg

AVTSPRFIGRR (This sequence is based on TH-Ser31 (rat).) [SEQ ID NO: 8]
RELATIVE 32P INCORPORATION (% 3.3 μmol/min/mg) (ERK2 [2]): 9 % 3.3 μmol/min/mg

QATGPLSPGFRR-NH2 [SEQ ID NO: 19]
RELATIVE 32P INCORPORATION (% 3.0 μmol/min/mg) Mean (ERK2 [2]): 182 % 3.0 μmol/min/mg

EAIMVRGQSPRFK (This sequence is based on TH-Ser31 type 2 HUMAN.) [SEQ ID NO: 22]
RELATIVE 32P INCORPORATION (% 3.3 μmol/min/mg) (ERK2 [2]): 2 % 3.3 μmol/min/mg

RRELVEPLTPSGEA (This sequence is EGF Receptor (Thr669).) [SEQ ID NO: 3]
RELATIVE 32P INCORPORATION (% OF MBP) (ERK1): 13 % OF MBP

YQAEAIMSPRFIGRRQ (This sequence is new and based on TH-31 type 1 HUMAN.) [SEQ ID NO: 13]
Kmin(app) (ERK2 [1]): 1.0 mM
pattern and degree of ERK activation over time compared with ERK immunoprecipitation and blot immunolabeling assays (ERK1/2): faithfully reproduced
RELATIVE 32P INCORPORATION (% 3.0 μmol/min/mg) Mean (ERK2 [2]): 100 % 3.0 μmol/min/mg
RELATIVE 32P INCORPORATION (% 3.3 μmol/min/mg) (ERK2 [2]): 80 % 3.3 μmol/min/mg

EAVTSPRFIGRR (This sequence is based on TH-Ser31 (rat).) [SEQ ID NO: 9]
RELATIVE 32P INCORPORATION (% 3.3 μmol/min/mg) (ERK2 [2]): 20 % 3.3 μmol/min/mg

RRAVSEQDAK (This sequence is TH (rat) Ser19.) [SEQ ID NO: 5]
RELATIVE 32P INCORPORATION (% OF MBP) (ERK1): <1 % OF MBP

YIMVRGQSPR (This sequence is based on TH-Ser31 type 2 HUMAN.) [SEQ ID NO: 21]
RELATIVE 32P INCORPORATION (% 3.3 μmol/min/mg) (ERK2 [2]): 1 % 3.3 μmol/min/mg

YQATGPLSPGPFRR-NH2 [SEQ ID NO: 16]
RELATIVE 32P INCORPORATION (% 3.0 μmol/min/mg) Mean (ERK2 [2]): 164 % 3.0 μmol/min/mg

GRRQSLIEDAR (This sequence is TH (rat) Ser40.) [SEQ ID NO: 6]
RELATIVE 32P INCORPORATION (% OF MBP) (ERK1): <1 % OF MBP

IMVRGQSPR (This sequence is based on TH-Ser31 type 2 HUMAN.) [SEQ ID NO: 20]
RELATIVE 32P INCORPORATION (% 3.3 μmol/min/mg) (ERK2 [2]): 1 % 3.3 μmol/min/mg

ATGPLSPGPFGRR (ATGPLSPFGRR; This sequence is ERKtide.) [SEQ ID NO: 23]
apparent Vmax (ERK2 [1]): 9.4 µmol/min/mg
Kmin(app) (ERK2 [1]): 0.6 mM
Vmax(app) Relative (ERK2 [1]): 82
pattern and degree of ERK activation over time compared with ERK immunoprecipitation and blot immunolabeling assays (ERK1/2): faithfully reproduced
Km (ERK2 [3]): 450 µM

KQAEAVTSPR (This sequence is based on TH-Ser31 (rat).) [SEQ ID NO: 7]
Kmin(app) (ERK2 [1]): 1.8 mM
Vmax(app) Relative (ERK2 [1]): 9
RELATIVE 32P INCORPORATION (% 3.3 μmol/min/mg) (ERK2 [2]): 7 % 3.3 μmol/min/mg
RELATIVE 32P INCORPORATION (% OF MBP) (ERK1): 5 % OF MBP

B1: . . . KNIVTPRTPPPS . . . (protein, listed as Bos taurus)
chain: AAQKRPSQRSKYLASASTMDHARHGFLPRHRDTGILDSLGRFFGSDRGAPKRGSGKDGHHAARTTHYGSLPQKAQGHRPQDENPVVHFFKNIVTPRTPPPSQGKGRGLSLSRFSWGAEGQKPGFGYGGRASDYKSAHKGLKGHDAQGTLSKIFKLGGRDSRSGSPMARR
pattern and degree of ERK activation over time compared with ERK immunoprecipitation and blot immunolabeling assays (ERK1/2): differed
levels of protein kinase activity in cellular extracts (ERK1/2; PC12 extracts, no kinase purification, EGTA, calmidazolium, cAMP-dependent protein kinase inhibitor present): Higher levels of protein kinase activity
RELATIVE 32P INCORPORATION (% OF MBP) (ERK1): 100 % OF MBP
Km (ERK2 [4]): 10 to 50 µM
